Measurements as given in publication PMC11208740, “Structure of the human systemic RNAi defective transmembrane protein 1 (hSIDT1) reveals the conformational flexibility of its lipid binding domain” (Life Science Alliance, 2024).

Biological target: the molecule itself
Assay: SEC; purified hSIDT1-GFP on Superose 6 Increase 10/300 GL at 0.5 ml/min, intrinsic tryptophan fluorescence; column in 0.15 mM LMNG, 25 mM Tris-HCl pH 7.5, 200 mM NaCl; molecular weight read from a standard plot

B1: full-length human systemic RNAi defective transmembrane family member 1 (hSIDT1), C-terminal GFP-Strep-tag-II fusion (natural protein, UniProt Q9NXL6 20-827, looked up)
chain: ASPGHPAKSPRQPPAPRRDPFDAARGADFDHVYSGVVNLSTENIYSFNYTSQPDQVTAVRVYVNSSSENLNYPVLVVVRQQKEVLSWQVPLLFQGLYQRSYNYQEVSRTLCPSEATNETGPLQQLIFVDVASMAPLGAQYKLLVTKLKHFQLRTNVAFHFTASPSQPQYFLYKFPKDVDSVIIKVVSEMAYPCSVVSVQNIMCPVYDLDHNVEFNGVYQSMTKKAAITLQKKDFPGEQFFVVFVIKPEDYACGGSFFIQEKENQTWNLQRKKNLEVTIVPSIKESVYVKSSLFSVFIFLSFYLGCLLVGFVHYLRFQRKSIDGSFGSNDGSGNMVASHPIAASTPEGSNYGTIDESSSSPGRQMSSSDGGPPGQSDTDSSVEESDFDTMPDIESDKNIIRTKMFLYLSDLSRKDRRIVSKKYKIYFWNIITIAVFYALPVIQLVITYQTVVNVTGNQDICYYNFLCAHPLGVLSAFNNILSNLGHVLLGFLFLLIVLRRDILHRRALEAKDIFAVEYGIPKHFGLFYAMGIALMMEGVLSACYHVCPNYSNFQFDTSFMYMIAGLCMLKLYQTRHPDINASAYSAYASFAVVIMVTVLGVVFGKNDVWFWVIFSAIHVLASLALSTQIYYMGRFKIDLGIFRRAAMVFYTDCIQQCSRPLYMDRMVLLVVGNLVNWSFALFGLIYRPRDFASYMLGIFICNLLLYLAFYIIMKLRSSEKVLPVPLFCIVATAVMWAAALYFFFQNLSSWEGTPAESREKNRECILLDFFDDHDIWHFLSATALFFSFLVLLTLDDDLDVVRRDQIPVF
notes: human systemic RNAi defective transmembrane family member 1 (hSIDT1), full length, codon-optimized gene synthesized by GenScript, cloned into pEG BacMam; Made in cells that lack N-acetylglucosaminyltransferase I, so the protein lacks complex N-glycosylation (predicted sites N57, N67, N83, N136, N282); No cleavage of GFP-Strep-tag-II is described; Not modelled in the structure: the first 40 …
stoichiometry N: 2
